This test concerns the target T1, Gal4 DNA-binding domain (DNABD) linked to the full-length CIITA (pSGCIITA) (UniProt P33076 1-1130).
T1 sequence: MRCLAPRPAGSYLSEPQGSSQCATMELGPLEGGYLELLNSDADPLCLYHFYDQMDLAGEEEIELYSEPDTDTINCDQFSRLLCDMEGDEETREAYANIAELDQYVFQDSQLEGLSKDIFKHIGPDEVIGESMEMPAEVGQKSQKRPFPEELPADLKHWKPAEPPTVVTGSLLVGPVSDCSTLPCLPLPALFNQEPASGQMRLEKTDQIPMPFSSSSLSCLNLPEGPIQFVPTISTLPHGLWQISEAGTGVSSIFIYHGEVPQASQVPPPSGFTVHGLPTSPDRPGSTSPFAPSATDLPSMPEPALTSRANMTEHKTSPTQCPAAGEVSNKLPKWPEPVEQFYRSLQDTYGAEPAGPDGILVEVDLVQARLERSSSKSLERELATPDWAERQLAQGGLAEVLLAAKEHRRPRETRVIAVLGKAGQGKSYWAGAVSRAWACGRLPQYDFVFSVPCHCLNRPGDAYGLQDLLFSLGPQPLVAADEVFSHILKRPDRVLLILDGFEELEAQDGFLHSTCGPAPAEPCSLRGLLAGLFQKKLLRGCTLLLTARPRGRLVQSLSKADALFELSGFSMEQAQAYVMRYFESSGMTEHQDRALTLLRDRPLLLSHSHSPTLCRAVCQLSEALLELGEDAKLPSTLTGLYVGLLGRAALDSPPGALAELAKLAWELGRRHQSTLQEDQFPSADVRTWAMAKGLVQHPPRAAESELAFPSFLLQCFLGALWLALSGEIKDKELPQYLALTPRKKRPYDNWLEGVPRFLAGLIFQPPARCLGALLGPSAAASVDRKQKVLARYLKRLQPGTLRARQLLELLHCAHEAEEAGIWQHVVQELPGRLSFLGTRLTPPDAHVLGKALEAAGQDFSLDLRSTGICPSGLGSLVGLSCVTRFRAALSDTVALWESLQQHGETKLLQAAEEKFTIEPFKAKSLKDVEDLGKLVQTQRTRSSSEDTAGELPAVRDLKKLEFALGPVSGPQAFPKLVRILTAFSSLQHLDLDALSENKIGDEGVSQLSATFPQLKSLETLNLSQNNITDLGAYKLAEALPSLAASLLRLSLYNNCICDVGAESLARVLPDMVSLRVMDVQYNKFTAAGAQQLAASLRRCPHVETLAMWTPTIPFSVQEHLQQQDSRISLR
As to the kind of experiment: two-hybrid.

B1: Bob1 expressed from pCBOB1 (natural protein)
chain: MLWQKPTAPEQAPAPARPYQGVRVKEPVKELLRRKRGHASSGAAPAPTAVVLPHQPLATYTTVGPSCLDMEGSVSAVTEEAALCAGWLSQPTPATLQPLAPWTPYTEYVPHEAVSCPYSADMYVQPVCPSYTVVGPSSVLTYASPPLITNVTTRSSATPAVGPPLEGPEHQAPLTYFPWPQPLSTLPTSTLQYQPPAPALPGPQFVQLPISIPEPVLQDMEDPRRAASSLTIDKLLLEEEDSDAYALNHTLSVEGF
As for B1, the “fold transactivation of pDRAUASgCAT (CAT reporter, with OBS)” value stood at 95 fold and the “fold transactivation of pG1E1bCAT (CAT reporter, no OBS)” value worked out at 90 fold.

The values are drawn from article PMC2192624 (The Journal of Experimental Medicine, 1996).
